{"source": "patent US20260191954A1", "about": "“COMPOSITIONS AND METHODS FOR NEOADJUVANT TREATMENT IN CANCER” (INNATE PHARMA, priority 2022, published 2026)", "key": {"[1]": {"test": "Phase 1 study of IPH5201 +/- durvalumab in advanced solid tumours: safety", "assay_type": "in vivo", "method": "A first-in-human, multicentre, non-randomised, open-label, phase 1 study was conducted in order to assess the safety, efficacy, pharmacokinetics (PK) and pharmacodynamics (PD) of IPH5201±durvalumab (Imfinzi™) in patients with advanced solid tumours. The study consisted of two consecutive dose-escalation parts: • Part 1: Ascending doses of IPH5201 (100, 300, 1000 and 3000 mg) every 3 weeks (Q3W). • Part 2: Ascending doses of IPH5201 (300, 1000 and 3000 mg) and 1500 mg durvalumab Q3W.\nPD cohorts enrolled patients with advanced squamous cell lung carcinoma or advanced pancreatic ductal adenocarcinoma in the top two dose levels of Parts 1 and 2. Primary endpoints were safety and tolerability. Key secondary endpoints included preliminary antitumour activity measured by objective response and disease control per RECIST v1.1, PK and immunogenicity. Exploratory endpoints included efficacy measured by duration of response and progression-free survival (PFS) per RECIST v1.1, overall survival and assessment of biomarkers.\nKey inclusion criteria were: • Adults aged ≥18 years. • Histologically or cytologically confirmed advanced solid tumours. • At least one measurable lesion per RECIST v1.1. • Refractoriness to standard therapy or disease for which no standard therapy exists. • Eastern Cooperative Oncology Group Performance Status of 0 or 1. • Archival or fresh tumour sample. • Key exclusion criteria were: • Previous treatment with any agents targeting CD73, CD39, or adenosine receptors. • Treatment with any conventional or investigational anticancer therapy within 21 days of the first planned dose. • Active or prior autoimmune or inflammatory disorders within the past 5 years. • Cardiac and vascular criteria including presence of acute coronary syndrome or thromboembolic events within 6 months prior to enrolment, congestive heart failure, serious cardiac arrhythmia requiring medication, or uncontrolled hypertension. • Untreated metastases to the central nervous system.\nOverall, 57 patients received treatment (IPH5201, n=38; IPH5201+durvalumab, n=19). […] Treatment-emergent adverse events (TEAEs) occurred in 96.5% of patients; 40.4% had grade ≥3 TEAEs. […] Treatment-related adverse events (TRAEs) occurred in 66.7% of patients (37/57 (64.9%) related to IPH5201; 11/19 (57.9%) related to durvalumab). […] The most common TRAEs were infusion-related reactions (21.1%), fatigue (17.5%), nausea, arthralgia, tumour pain and pruritus (8.8% each). […] Maximum tolerated dose (MTD) was not reached."}, "CD39 enzyme activity": {"molecular_target": "T1, CD39 enzyme activity (Homo sapiens, UniProt P49961)", "T1 construct": "Tumour samples were obtained from patients with pancreatic cancer and assessed for CD39 enzyme activity; from tissue; host or cells: patients' tumour biopsies (tumour, stroma, vasculature), screening vs Day 15", "T1 sequence (P49961 1-510)": "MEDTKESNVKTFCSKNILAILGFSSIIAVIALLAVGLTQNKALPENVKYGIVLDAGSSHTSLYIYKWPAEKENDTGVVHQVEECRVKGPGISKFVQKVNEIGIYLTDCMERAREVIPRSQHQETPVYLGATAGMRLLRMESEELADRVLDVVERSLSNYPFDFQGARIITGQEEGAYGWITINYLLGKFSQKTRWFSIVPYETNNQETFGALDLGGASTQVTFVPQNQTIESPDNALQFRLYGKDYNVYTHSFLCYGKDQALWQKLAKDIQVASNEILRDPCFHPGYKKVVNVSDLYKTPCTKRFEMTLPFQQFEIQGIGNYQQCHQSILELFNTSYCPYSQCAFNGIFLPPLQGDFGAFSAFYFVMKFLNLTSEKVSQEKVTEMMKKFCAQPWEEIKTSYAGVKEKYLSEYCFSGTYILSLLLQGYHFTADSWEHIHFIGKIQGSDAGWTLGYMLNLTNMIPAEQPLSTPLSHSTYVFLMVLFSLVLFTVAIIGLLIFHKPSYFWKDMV", "test": "Tumoral CD39 enzyme activity in patient biopsies (Wachstein-Meisel assay)", "assay_type": "in vivo", "conditions": "for Significant overall decrease in CD39 enzymatic activity?: Day 15 vs screening biopsy"}, "[2]": {"molecular_target": "T2, recombinant human CD39 protein (huCD39) (Homo sapiens, UniProt P49961)", "T2 sequence (P49961 38-478 limits assumed)": "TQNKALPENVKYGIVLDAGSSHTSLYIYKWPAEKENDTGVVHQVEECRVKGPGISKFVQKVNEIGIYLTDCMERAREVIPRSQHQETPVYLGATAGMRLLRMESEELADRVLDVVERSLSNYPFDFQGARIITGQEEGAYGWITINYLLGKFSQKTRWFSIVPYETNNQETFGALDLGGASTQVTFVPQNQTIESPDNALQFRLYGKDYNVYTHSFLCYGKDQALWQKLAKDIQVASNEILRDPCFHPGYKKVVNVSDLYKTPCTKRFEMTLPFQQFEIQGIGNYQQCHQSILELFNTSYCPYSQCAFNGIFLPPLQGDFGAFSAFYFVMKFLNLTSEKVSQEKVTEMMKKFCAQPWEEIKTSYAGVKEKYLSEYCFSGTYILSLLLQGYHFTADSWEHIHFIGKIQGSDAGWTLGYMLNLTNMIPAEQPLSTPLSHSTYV", "test": "eATP release by H1703 (CD39-) cells incubated with recombinant huCD39, with or without IPH5201, then docetaxel", "assay_type": "cell-based", "conditions": "H1703 cells + huCD39 400 ng/ml + docetaxel 0.1 μM; IPH5201 10 μg/mL; 40 h; FIG. 3A", "method": "H1703 (CD39−) cells were incubated with recombinant human CD39 protein (huCD39) (400 ng/ml) to mimic soluble CD39 in tumor microenvironment with or without IPH5201 (humanized anti-CD39 antibody having the respective heavy and light chain amino acid sequences of SEQ ID NOS: 10 and 11) at 10 μg/mL and then treated with docetaxel (0.1 μM). The measure of extracellular ATP (eATP) release was performed 40 h after docetaxel treatment.\nOAW42 (CD39+) cells were incubated with 10 or 50 μg/mL of IPH5201 and treated with a dose range of docetaxel. The measure of eATP release was performed 30 h after docetaxel treatment. eATP was measured in the cell culture supernatant with a luminescent-based assay (CellTiter-Glo®) and expressed in Luminescence Arbitrary Unit (AU). Means+/−SD."}}}
{"molecule": "IPH5201: humanized anti-CD39 antibody having the respective heavy and light chain amino acid sequences of SEQ ID NOS: 10 and 11 (antibody) heavy: QVQLVQSGAEVKKPGASVKVSCKASGYTFTDYNMHWVRQAPGQRLEWIGYIVPLNGGSTFNQKFKGRATITVDTSARTAYMELSSLRSEDTAVYYCARGGTRFAYWGQGTLVTVSSASTKGPSVFPLAPSSKSTSGGTAALGCLVKDYFPEPVTVSWNSGALTSGVHTFPAVLQSSGLYSLSSVVTVPSSSLGTQTYICNVNHKPSNTKVDKRVEPKSCDKTHTCPPCPAPEAEGAPSVFLFPPKPKDTLMISRTPEVTCVVVDVSHEDPEVKFNWYVDGVEVHNAKTKPREEQYNSTYRVVSVLTVLHQDWLNGKEYKCKVSNKALPSSIEKTISKAKGQPREPQVYTLPPSREEMTKNQVSLTCLVKGFYPSDIAVEWESNGQPENNYKTTPPVLDSDGSFFLYSKLTVDKSRWQQGNVFSCSVMHEALHNHYTQKSLSLSPGK light: DIVMTQSPDSLAVSLGERATINCRASESVDNFGVSFMYWFQQKPGQPPKLLIYGASNQGSGVPDRFSGSGSGTDFTLTISSLQAEDVAVYYCQQTKEVPYTFGGGTKVEIKRTVAAPSVFIFPPSDEQLKSGTASVVCLLNNFYPREAKVQWKVDNALQSGNSQESVTEQDSKDSTYSLSSTLTLSKADYEKHKVYACEVTHQGLSSPVTKSFNRGEC", "values": [{"measurement": "deaths due to treatment", "setting": "[1]; all 57 treated patients", "result": "no deaths due to treatment"}, {"measurement": "Maximum tolerated dose (MTD)", "setting": "[1]; doses up to 3000 mg Q3W", "result": "not reached"}, {"measurement": "DLTs during dose escalation", "setting": "[1]; in vivo", "result": "No DLTs were observed"}, {"measurement": "TEAE: anaemia", "setting": "[1]; in vivo", "result": 19.3, "unit": "%"}, {"measurement": "TEAE: decreased appetite", "setting": "[1]; in vivo", "result": 26.3, "unit": "%"}, {"measurement": "TEAE: fatigue", "setting": "[1]; in vivo", "result": 28.1, "unit": "%"}, {"measurement": "TEAE: infusion-related reactions", "setting": "[1]; in vivo", "result": 21.1, "unit": "%"}, {"measurement": "TEAE: tumour pain", "setting": "[1]; in vivo", "result": 19.3, "unit": "%"}, {"measurement": "TRAE: arthralgia", "setting": "[1]; in vivo", "result": 8.8, "unit": "%"}, {"measurement": "TRAE: fatigue", "setting": "[1]; in vivo", "result": 17.5, "unit": "%"}, {"measurement": "TRAE: infusion-related reactions", "setting": "[1]; in vivo", "result": 21.1, "unit": "%"}, {"measurement": "TRAE: nausea", "setting": "[1]; in vivo", "result": 8.8, "unit": "%"}, {"measurement": "TRAE: pruritus", "setting": "[1]; in vivo", "result": 8.8, "unit": "%"}, {"measurement": "TRAE: tumour pain", "setting": "[1]; in vivo", "result": 8.8, "unit": "%"}, {"measurement": "correlation of dose with incidence of TEAEs of at least grade 3", "setting": "[1]; in vivo", "result": "No significant correlation"}, {"measurement": "grade 4 TRAEs", "setting": "[1]; in vivo", "result": "no grade 4 TRAEs"}, {"measurement": "patients with TRAEs related to IPH5201", "setting": "[1]; in vivo", "result": 64.9, "unit": "%"}, {"measurement": "patients with TRAEs related to IPH5201, count", "setting": "[1]; in vivo", "result": "37/57"}, {"measurement": "patients with grade 3 TRAEs", "setting": "[1]; in vivo", "result": 10.5, "unit": "%"}, {"measurement": "patients with grade ≥3 TEAEs", "setting": "[1]; in vivo", "result": 40.4, "unit": "%"}, {"measurement": "patients with treatment-emergent adverse events (TEAEs)", "setting": "[1]; in vivo", "result": 96.5, "unit": "%"}, {"measurement": "patients with treatment-related adverse events (TRAEs)", "setting": "[1]; in vivo", "result": 66.7, "unit": "%"}, {"measurement": "tumoral CD39 enzymatic activity", "setting": "CD39 enzyme activity; 3000 mg dose of IPH5201", "result": "showed a decrease in enzymatic activity"}, {"measurement": "Significant overall decrease in CD39 enzymatic activity?", "setting": "CD39 enzyme activity; Patient 1, Cohort 1000 mg, NSCLC (squamous)", "result": "No"}, {"measurement": "Significant overall decrease in CD39 enzymatic activity?", "setting": "CD39 enzyme activity; Patient 3, Cohort 1000 mg, Pancreatic", "result": "Yes"}, {"measurement": "Significant overall decrease in CD39 enzymatic activity?", "setting": "CD39 enzyme activity; Patient 4, Cohort 3000 mg, Pancreatic", "result": "Yes"}, {"measurement": "Significant overall decrease in CD39 enzymatic activity?", "setting": "CD39 enzyme activity; Patient 5, Cohort 3000 mg, Pancreatic", "result": "Yes"}, {"measurement": "Significant overall decrease in CD39 enzymatic activity?", "setting": "CD39 enzyme activity; Patient 6, Cohort 3000 mg, Pancreatic", "result": "Yes"}, {"measurement": "Significant overall decrease in CD39 enzymatic activity?", "setting": "CD39 enzyme activity; Patient 7, Cohort 3000 mg, NSCLC (squamous)", "result": "Yes"}, {"measurement": "patients in whom tumoral CD39 enzymatic activity decreased", "setting": "CD39 enzyme activity; patients with available samples", "result": "5/8"}, {"measurement": "eATP release reduced by added huCD39", "setting": "[2]", "result": "restored"}]}
